The experiment addresses T1, 15N-labelled recombinant EGFR287-302 peptide with methionine mutated to leucine (human, also: 15N-labelled, oxidized).
T1 construct: cleaved from an SH2 fusion with CNBr; also called 15N-labelled peptide
T1 peptide: CGADSYELEEDGVRKC
Nature of the experiment: NMR, 15N HSQC.

Where no end group is shown, it is not given here.

B1: Fab fragment of mAb806 (Fab, V domains shown)
VH: DVQLQESGPSLVKPSQSLSLTCTVTGYSITSDFAWNWIRQFPGNKLEWMGYISYSGNTRYNPSLKSRISITRDTSKNQFFLQLNSVTIEDTATYYCVTAGRGFPYWGQGTLVTVSA
VL: DILMTQSPSSMSVSLGDTVSITCHSSQDINSNIGWLQQRPGKSFKGLIYHGTNLDDEVPSRFSGSGSGADYSLTISSLESEDFADYYCVQYAQFPWTFGGGTKLEIKR
notes: papain Fab of the intact mAb; also called Fab806
As for B1, the binding result is recorded as “binds”.

(Values after patent publication US20140322130A1 (published 2014).)
